Measurements reported in the DeepSol protein solubility set.

assay: soluble on expression in E. coli; label from the status in PepcDB or PDB records

Sequence | soluble on expression in E. coli
MGSDKIHHHHHHMDLENKFSYHFLEGLTLTEDGILTQGNEQVYIPQKELGVLIVLLESAGHVVLKDMIIESVWKNIIVSDESLTRCIYSLRCIFEKIGYDRCIETIYRKGYRFSGQVFKTKINEDNTSDYSIAIFPFTTSLNTLDPLILNQELVQIISNKKIDGLYTYPMAATNFCNDHISQNSFLSRFKPDYFVTGRINQNNAVNTLYIELIDAKNLFLIASNHLPVDELHNTSQFIIDNILQTVHKPERSVRLAKQDQGYKNHYLSDEMLAGKKELYDFTPESIYRAMTIFDRLQNKSDIQTLKTECYCLLAECHMSLALHGKSELELAAQKALELLDYVSDITTVDGKILAIMGLITGLSGQAKVSHILFEQAKIHSTDIASLYYYRALVHFHNEKIEEARICIDKSLQLEPRRRKAVVIKECVDMYVPNPLKNNIKLYYKETESESHRVIIDNILKLKQLTRICMR | not soluble
MGSDKIHHHHHHMRAKELQDWFPEARISDQPVEKEGYLTLPLASQQWILLEEAGLSEREKQLVALLTQQEQARSLNPWYSYLVEGKGQAPQVFKKIQLVYCHLSYFQQENLASWLDMMRTLFPNCQTVLQVGAQDYVFVLQQDKYTSVRDILSDTIEAVEYDFGLRLSIMLGQVWSQTGHQALSDLIKAERDLFKTWWRQGHQGVHTFSQLYLWSMGERLVDLKPIKECLHQMILDQDQIQEIILSLWENSAVLTKTAQQLYLHRNSLQYKIDKWEELTGLQLKELTDLTLCYQLILGSLSTIVGL | not soluble
MAEPTAKAAPYENLMVPSPSMGRDIPVAFLAGGPHAVYLLDAFNAGPDVSNWVTAGNAMNTLAGKGISVVAPAGGAYSMYTNWEQDGSKQWDTFLSAELPDWLAANRGLAPGGHAAVGAAQGGYGAMALAAFHPDRFGFAGSMSGFLYPSNTTTNGAIAAGMQQFGGVDTNGMWGAPQLGRWKWHDPWVHASLLAQNNTRVWVWSPTNPGASDPAAMIGQAAEAMGNSRMFYNQYRSVGGHNGHFDFPASGDNGWGSWAPQLGAMSGDIVGAIRHHHHHH | soluble
MNYRHIYHAGNFADVFKHIIVTRIIEYLKRKEKAFRVIDTHAGIGIYDLSSLEAHKTGEWREGVYQLLSTPIPEDLKALLYPWCNIIETLNKGKKDILFYPGSPVLIRQLLRKQDRLTAIELHREDYHILAKNFAGDYQTKVLHLNGWLSLNAHLPPKEKRGFILVDPPFEKPGEFSRLIEGLMKAYRRFSGGIYALWYPVKYDKEIENFLHALHQTGIPKILQLEMRIRKSSIPPTMNGSGMILINPPYLLEEEIKKLSPFLIARLGQDKNAQITHKWIQKEQLLC | not soluble
MVKLRIGYPEDPDYQERLEEFEARIARGEKIEPGDWMPAEYRRQLIRMISQHAHSEWVGMLPEGAWITRAPSLRRKLILLAKVQDEAGHGQYLYHAAETLGITREEMVEALLSGKAKYSNIFNYPTLTWADVAIIGWLVDGMAIKNQTMLAQCSYGPYSRAMVRICAEETFHHKQGKEAVLLYAKGSPKQRRMVQDALNRWWWPTLMMAGPHDTDSPHTPLLLRWGIKTKTNDQIRQEFLNEHVPELLDAGLSIPDPDLRYDEKTGNWIHGPIPWDEFWKVIGGEGPMNRHRLQGRRRAHQEGRWVREAMEAYAKRRLAQAAD | soluble
MAALASSLIRQKREVREPGGSRPVSAQRRVCPRGTKSLCQKQLLILLSKVRLCGGRPARPDRGPEPQLKGIVTKLFCRQGFYLQANPDGSIQGTPEDTSSFTHFNLIPVGLRVVTIQSAKLGHYMAMNAEGLLYSSPHFTAECRFKECVFENYYVLYASALYRQRRSGRAWYLGLDKEGQVMKGNRVKKTKAAAHFLPKLLEVAMYQEPSLHSVPEASPSSPPAPLEHHHHHH | not soluble
MAHHHHHHMEALETLRSIAPVSSTEEIQAMIKSAKNAREVRMVLERIVYTHHLCFDLLNGHGYRVAVLQTLTAVAPHASCMHEWFDCVARFRRLGFVLTRTYAAEGFTTIRQWLSHEFFHRGRSPSLVTEGTAHIKELMQWCLEDRLVFDHVLYTRIVFLLTMIVSYLDRQNLYRASFPEDFAKRDGIVVEWIVTNERCVDFDECVLQCDAVMEELLEQMRQDIPSRPPFSFMYRLADYYFATDNVEKMIAVMEDAESYGVSVAESTTAKLMQMACAFNSPQVPELLLRWRVLPPQCVLATPDMSRLLFFYSRSGGGLPCPHCGEAYNHRNVSVYCWLQTPPHQRQCPALRKARVQKGELEESRELPQNADWSAQAFGLFELSRARAIEWTAVEWRGFLLCCIFSPRAMEAKALMDQYLDVTEMDDFLRAACIRLLRHHAPAEAWPTLKKWKQQQCNMSPIALQEALMAASMVADAATRLEHMKAVWQLLLEKDSYVMPLTRRFYQRRMEELATSYAAAAASGDGKESQGGLATEREEAQLMQRVVEMQPRHVSLLDMKDSAADFVVGTRRKNVYRPR | not soluble
MRTDLALDFSVNKENKTITIKREFAAVRAIVWEAFTRAEILDQWWAPKPWKAKTKSMDFKEGGTWLYAMVGPNGEEHWSICEYAIIKPIERFTGKDGFTDASGKLNTEMPRSNWDMRFIDKGEITEVQYHISYDDVAQLEATIQMGFKEGITMAMENLDELLVSGKKLEHHHHHH | soluble
MAQGFAVGFDPLGLGDLSSGSLSSLSSRGHLGSDSGSTATRYLLRKQQRLLNGPPRGIRASSPMGRVILINSPIEANSDESDIIHSVRVEKSPAGRLGFSVRGGSEHGLGIFVSKVEEGSSAERAGLCVGDKITEVNGLSLESTTMGSAVKVLTSSSRLHMMVRRMGRVPGIKFSKEKTTWVDVVNRRLVVEKCGSTPSDTSSEDGVRRIVHLYTTSDDFCLGFNIRGGKEFGLGIYVSKVDHGGLAEENGIKVGDQVLAANGVRFDDISHSQAVEVLKGQTHIMLTIKETGRYPAYKEMVSEYCWLDRLSNGVLQQLSPASESSSSVSSCASSAPYSSGSLPSDRMDICLGQEEPGSRGPGWGRADTAMQTEPDAGGRVETWCSVRPTVILRDTAIRSDGPHPGRRLDSALSESPKTALLLALSRPRPPITRSQSYLTLWEEKQQRKEKSGSPGEKGALQRSKTLMNLFFKGGRQGRLARDGRREAWTLDSGSLAKTYPRLDIEKEMGAT | soluble
MKVIDLSQTFENNMSQFPGTPKIQLKAVTSVEESGYQVTDFHSVVHVGTHCDAPAHFISGATTIDQLPLDQFVGEAVLIDVTHIQERKLPKTVLHNTDIKEGDIVIFHSNLSTKWNTEAYEKEAFYLSEELAKELVRLKVKSIGLDFISPDEVTTETSPIHHILLGNDIYLIENLTNLDAIEEKRFFFSAAPLKIKNSDGAFARAFAVIFLEHHHHHH | soluble
AHHHHHHGSPVYEINGIKPKIHPTAYVDENAVIIGDVVLEEKTSVWPSAVLRGDIERIYVGKYSNIQDNVSIHTSHGYPTEIGEYVTIGHNAVVHGAKIGNYVIIGMGAIILDGAKIGNHVIIGAGALVPPNKEIPDYSLVIGVPGKVVRQLSEEEIEWTKKNAEVYVELAEKHMKGRKKIMIYRIISHIPSIFFKPAYDLYERYLLEKVKAGVIPKHVAIIMDGNRRWARKREKPPWYGHFFGSKKLEEIVEWCHELGIRILTVYAFSTENFKRSKEEVDRLMKLFEEKFRELVTDRRVHEYGIRVNVMGRKELLPKNVREAAEEAERVTRKYNNYFLNIALAYGGRSEIVDAIKDIVNDVLEGRLKLEDINEEIVRKYLYVPNMPDPDIVIRTGGEVRISNFLLYQIAYSELFFVDVYFPEFRKIDFLRIIREFQKRERRFGR | soluble
MSLAGEVWLQTHHPDHPLLQTLINGGYHTFANTELQQRQAAGLPPFAHLALLRAEAKDTTSTQQFLATVRKHIPIDNAVECYGPMSAPMPRRAGYERYQLLLSSSQRNTLHRTLNVLIPAIHALPEARRVRWSLDVDPVDLYEGHHHHHH | not soluble
GSHMRSRRVDVMDVMNRLILAMDLMNRDDALRVTGEVREYIDTVKIGYPLVLSEGMDIIAEFRKRFGCRIIAAFKVADIPETNEKICRATFKAGADAIIVHGFPGADSVRACLNVAEEMGREVFLLTEMSHPGAEMFIQGAADEIARMGVDLGVKNYVGPSTRPERLSRLREIIGQDSFLISPGVGAQGGDPGETLRFADAIIVGRSIYLADNPAAAAAGIIESIKDLRIPEDPAANKARKEAELAAATAEQ | soluble
MAYLEQLQAGLRYLGRAGESGRKSLDKVVAPVNGAISEIRGAAAELENLPGVSPEMAARLQRAMRGIGQAQGKVNRVVSTYDRASRALLGIDERLDALKVQVNSAAQAVGKVAGDISPTLAGVLPSWLLAPSATPPSEAAASLPHLLVLQPLTANAQPFYFNLNTAAFDALQRNSAYNWSGQVRLGRRPALQSVGMGEESILLKGAVFPLRRQVGNQEKVVGLEQLEALRRLAERREPLILSSGYGEVQMGLWCLVRISENQSALLGNGAPRKQTFDLEFKRYGDDLPNR | not soluble
MSLASLPGGASTLQETYQDWTVSCQSQKDTTACVMRQEQSSAQTGQRVLTAELRNVAGGKVDGVLLMPFGLDLAKGASLKIDDTAGPNLTFSTCLPQGCLAPVSFDAKQVAALKSGTNINVTTTALSPSQPVAFKISLKGFGAALDRIQALTKEGHHHHHH | soluble
MGSDKIHHHHHHMNFLAHLHLADNSKTDLAANLAGDFAKGNIADHPKALQQGIWLHRQIDSLTDSHELTKELKAAFPKTLQRAAPILIDLAFDHMLAKYWEEYHHLSLPDFAQQAYLALSSAEQLPVNLSDLIIRMRQENWLIAYESREGLNQTIKAVSKRVSKPEIFDGAIDTVKRMDTEIEIAFRTFYPQLMAYSRIWTRQTPPEFL | not soluble
MEPKVYKPPISKAIGLVVGSVLPVNPRDLEKMMRRLGIKVEQLSADEARIVLGSGETMVFRSPTVIVMRAKGQPPMVYLVGDYTVEKPREETAAEITEEDVALVAEQAGVSMEEARKALEESGGDIAEAILRLKGEE | not soluble
MVSSQPKYDLIREVGRGSYGLVYEALVRRTGQRVAVKKIRCQAPENVELALREFWALSSIQSQHPNVIHLEECVLQRDGMVQRMLHGSSSVLYLP | not soluble
MGSDKIHHHHHHMAKLCHKPLHILFFRHSLLGRGGDKMVVCQANALARRGHQVTIRTATLATPFSLDDRIEINLTGSSSVAATLMDLFKGRFSFDLLIVDIIPLAVLAGIRFGRTKVIYYVQDWDVSYYRSLAFRSLIRLLYFVERSFLRIPVIVVSEHLLGKIGRTGIGATYVVENGIDLTLFNSKGRLHPAFAPGHIPTFLLFIRNDWRKGSDLALKVVKKLADRYPHAFGVVAVGNRPAIRPSQIDWIDKGFMDERQIADLMKQCDLFLYPSRHEGFGLMALEAFACGCLVVTTTAVGFAHDIENSLVAEVDDEQGLYSRLCCLLEKQIEIAPLVKKAEEFASEHPLELCMDRFCSVIEELNQ | not soluble
MKIIAYGARVDEIQYFKQWAKDTGNTLEYHTEFLDENTVEWAKGFDGINSLQTTPYAAGVFEKMHAYGIKFLTIRNVGTDNIDMTAMKQYGIRLSNVPAYSPAAIAEFALTDTLYLLRNMGKVQAQLQAGDYEKAGTFIGKELGQQTVGVMGTGHIGQVAIKLFKGFGAKVIAYDPYPMKGDHPDFDYVSLEDLFKQSDVIDLHVPGIEQNTHIINEAAFNLMKPGAIVINTARPNLIDTQAMLSNLKSGKLAGVGIDTYEYETEDLLNLAKHGSFKDPLWDELLGMPNVVLSPHIAYYTETAVHNMVYFSLQHLVDFLTKGETSTEVTGPAK | soluble
MGHHHHHHSHMEKSEPVDQRRHTAGKAIVDSRSAQPKETSEERKARLSEWKAGKGRVLKRPPNSVVTQHEPAGQNEKPVGSFWTTMAEEDEQRLFTEKVNNTFSECLNLINEGCPKEDILVTLNDLIKNIPDAKKLVKYWICLALIEPITSPIENIIAIYEKAILAGAQPIEEMRHTIVDILTMKSQEKANLGENMEKSCASKEEVQEVSIEDTGVDVDPEKLEMESKLHRNLLFQDCEKEQDNKTKDPTHDVKTPNTETRTSCLIKYNVSTTPYLQSVKKKVQFDGTNSAFKELKFLTPVRRSRRLQEKTSKLPDMLRDHYPCVSSLEQLTELGRETDAFVCRPNAALCRVYYEADTT | not soluble
